The values that follow are results of earlier work, collected in article PMC10747851.

The data set concerns the target TfR (Homo sapiens) (UniProt P02786).

Sequence of TfR (Homo sapiens) (P02786 89-760): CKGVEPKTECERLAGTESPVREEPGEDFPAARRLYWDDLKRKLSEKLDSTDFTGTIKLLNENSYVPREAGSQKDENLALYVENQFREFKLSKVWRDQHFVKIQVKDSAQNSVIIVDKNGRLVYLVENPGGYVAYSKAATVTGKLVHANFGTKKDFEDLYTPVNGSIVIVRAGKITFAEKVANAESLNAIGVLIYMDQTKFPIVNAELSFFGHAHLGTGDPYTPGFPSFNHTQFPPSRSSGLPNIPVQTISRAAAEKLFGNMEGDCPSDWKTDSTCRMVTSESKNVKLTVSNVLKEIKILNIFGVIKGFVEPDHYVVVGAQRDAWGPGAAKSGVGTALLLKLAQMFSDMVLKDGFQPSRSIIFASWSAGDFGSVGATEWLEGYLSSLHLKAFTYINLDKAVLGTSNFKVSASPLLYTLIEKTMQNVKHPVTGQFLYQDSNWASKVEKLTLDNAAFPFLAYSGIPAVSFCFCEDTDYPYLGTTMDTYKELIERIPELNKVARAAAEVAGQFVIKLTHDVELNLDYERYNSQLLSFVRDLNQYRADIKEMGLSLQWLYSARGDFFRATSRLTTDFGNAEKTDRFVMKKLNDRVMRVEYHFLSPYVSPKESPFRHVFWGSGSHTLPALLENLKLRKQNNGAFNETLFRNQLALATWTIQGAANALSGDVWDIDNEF

With T7 peptide, the Kd is 10 nM.
